In ChEMBL document CHEMBL3769311, “The natural flavone fukugetin as a mixed-type inhibitor for human tissue kallikreins” (Bioorg Med Chem Lett, 2016):
Active and inactive are the calls of the source. The rule behind the calls is not given here.

What was measured:
[1] = tested on: O=C1CC(c2ccc(O)c(O)c2)Oc2c1c(O)cc(O)c2[C@@H]1C(=O)c2c(O)cc(O)cc2O[C@H]1c1ccc(O)cc1; details: Homo sapiens; 2 uM
Description: Mixed-type inhibition of human tissue kallikrein-1 expressed in baculovirus infected insect cells using Abz-KLRSSQ-EDDnp as substrate assessed as substrate Km at 2 uM by Lineweaver-Burk plot analysis

[2] = tested on: O=C1CC(c2ccc(O)c(O)c2)Oc2c1c(O)cc(O)c2[C@@H]1C(=O)c2c(O)cc(O)cc2O[C@H]1c1ccc(O)cc1; details: Homo sapiens; 10 uM
Description: Mixed-type inhibition of human tissue kallikrein-1 expressed in baculovirus infected insect cells using Abz-KLRSSQ-EDDnp as substrate assessed as enzyme Vmax at 10 uM by Lineweaver-Burk plot analysis

[3] = tested on: O=C1CC(c2ccc(O)c(O)c2)Oc2c1c(O)cc(O)c2[C@@H]1C(=O)c2c(O)cc(O)cc2O[C@H]1c1ccc(O)cc1; details: Homo sapiens; 4 uM
Description: Mixed-type inhibition of human tissue kallikrein-1 expressed in baculovirus infected insect cells using Abz-KLRSSQ-EDDnp as substrate assessed as substrate Km at 4 uM by Lineweaver-Burk plot analysis

[4] = tested on: O=C1CC(c2ccc(O)c(O)c2)Oc2c1c(O)cc(O)c2[C@@H]1C(=O)c2c(O)cc(O)cc2O[C@H]1c1ccc(O)cc1; details: Homo sapiens; 2 uM; remark: listed apart in the source
Description: Mixed-type inhibition of human tissue kallikrein-1 expressed in baculovirus infected insect cells using Abz-KLRSSQ-EDDnp as substrate assessed as enzyme Vmax at 2 uM by Lineweaver-Burk plot analysis

[5] = tested on: O=C1CC(c2ccc(O)c(O)c2)Oc2c1c(O)cc(O)c2[C@@H]1C(=O)c2c(O)cc(O)cc2O[C@H]1c1ccc(O)cc1; details: Homo sapiens; 10 uM; remark: listed apart in the source
Description: Mixed-type inhibition of human tissue kallikrein-1 expressed in baculovirus infected insect cells using Abz-KLRSSQ-EDDnp as substrate assessed as substrate Km at 10 uM by Lineweaver-Burk plot analysis

[6] = tested on: O=C1CC(c2ccc(O)c(O)c2)Oc2c1c(O)cc(O)c2[C@@H]1C(=O)c2c(O)cc(O)cc2O[C@H]1c1ccc(O)cc1; details: Homo sapiens; 8 uM
Description: Mixed-type inhibition of human tissue kallikrein-1 expressed in baculovirus infected insect cells using Abz-KLRSSQ-EDDnp as substrate assessed as substrate Km at 8 uM by Lineweaver-Burk plot analysis

[7] = tested on: O=C1CC(c2ccc(O)c(O)c2)Oc2c1c(O)cc(O)c2[C@@H]1C(=O)c2c(O)cc(O)cc2O[C@H]1c1ccc(O)cc1; details: Homo sapiens; 8 uM; remark: listed apart in the source
Description: Mixed-type inhibition of human tissue kallikrein-1 expressed in baculovirus infected insect cells using Abz-KLRSSQ-EDDnp as substrate assessed as enzyme Vmax at 8 uM by Lineweaver-Burk plot analysis

[8] = tested on: O=C1CC(c2ccc(O)c(O)c2)Oc2c1c(O)cc(O)c2[C@@H]1C(=O)c2c(O)cc(O)cc2O[C@H]1c1ccc(O)cc1; details: Homo sapiens; 4 uM; remark: listed apart in the source
Description: Mixed-type inhibition of human tissue kallikrein-1 expressed in baculovirus infected insect cells using Abz-KLRSSQ-EDDnp as substrate assessed as enzyme Vmax at 4 uM by Lineweaver-Burk plot analysis

[9] = molecular target: Kallikrein-1 (Homo sapiens) (UniProt P06870); details: 2 to 10 uM

Kallikrein-1 (Homo sapiens), P06870
Km [1]: 0.8 µM | Vmax [2]: 160 µM/s | Km [3]: 0.85 µM | Vmax [4]: 387 µM/s | Km [5]: 1.12 µM | Km [6]: 0.93 µM | Vmax [7]: 201 µM/s | Vmax [8]: 285 µM/s

O=C1CC(c2ccc(O)c(O)c2)Oc2c1c(O)cc(O)c2[C@@H]1C(=O)c2c(O)cc(O)cc2O[C@H]1c1ccc(O)cc1 (some centres undefined)
inhibition [9]: Active
